# Assays:
# [1] = target: nucleolin at the surface of MDA-MB-231 and MDA-MB-435S breast cancer cells (UniProt P19338); assay: flow cytometry, rhodamine geometric mean fluorescence, MDA-MB-231 cells
# [2] = target: nucleolin at the surface of MDA-MB-231 and MDA-MB-435S breast cancer cells (UniProt P19338); assay: flow cytometry, rhodamine geometric mean fluorescence, MDA-MB-435S cells
# UniProt P19338, sequence (P19338 2-710 limits assumed): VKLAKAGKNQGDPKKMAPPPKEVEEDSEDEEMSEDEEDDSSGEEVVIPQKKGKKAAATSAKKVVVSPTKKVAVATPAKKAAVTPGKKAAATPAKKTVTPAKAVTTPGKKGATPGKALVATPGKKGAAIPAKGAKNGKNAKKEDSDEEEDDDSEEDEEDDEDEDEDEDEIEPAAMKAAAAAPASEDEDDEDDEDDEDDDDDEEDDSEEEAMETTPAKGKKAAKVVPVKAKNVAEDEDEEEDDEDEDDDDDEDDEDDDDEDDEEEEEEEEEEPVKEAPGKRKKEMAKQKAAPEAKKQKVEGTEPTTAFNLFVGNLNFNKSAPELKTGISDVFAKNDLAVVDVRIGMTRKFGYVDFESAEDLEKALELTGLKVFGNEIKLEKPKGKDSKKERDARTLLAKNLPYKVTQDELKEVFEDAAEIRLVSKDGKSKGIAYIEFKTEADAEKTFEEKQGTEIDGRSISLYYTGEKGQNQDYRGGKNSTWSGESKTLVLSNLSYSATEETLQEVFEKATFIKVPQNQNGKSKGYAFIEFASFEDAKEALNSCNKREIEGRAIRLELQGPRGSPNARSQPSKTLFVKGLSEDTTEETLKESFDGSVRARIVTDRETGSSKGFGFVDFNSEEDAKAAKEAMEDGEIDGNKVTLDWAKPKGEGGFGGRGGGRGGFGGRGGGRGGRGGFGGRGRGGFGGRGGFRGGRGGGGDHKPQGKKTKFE
substance,measurement,setting,value
"F3 peptide-targeted liposomes (F3 peptide, SEQ ID NO:1, coupled through DSPE-PEG2k to pH-sensitive liposomes)",higher cellular association of the CD44+/ALDHhi population against the CD44-/ALDH-/low population (MDA-MB-231),[1],64%
same,higher cellular association of the CD44+/ALDHhi population against the CD44-/ALDH-/low population (MDA-MB-435S),[2],61%
